Values of other authors as cited in patent US20040096894A1, “Crystal structures of P- selectin, P- and E-selectin complexes, and uses thereof” (priority 2000, published 2004).

Target: T1, full-length neutrophil PSGL-1 (Homo sapiens, UniProt Q14242)
T1 construct: to full-length neutrophil PSGL-1; host or cells: neutrophils
T1 sequence (Q14242 42-412): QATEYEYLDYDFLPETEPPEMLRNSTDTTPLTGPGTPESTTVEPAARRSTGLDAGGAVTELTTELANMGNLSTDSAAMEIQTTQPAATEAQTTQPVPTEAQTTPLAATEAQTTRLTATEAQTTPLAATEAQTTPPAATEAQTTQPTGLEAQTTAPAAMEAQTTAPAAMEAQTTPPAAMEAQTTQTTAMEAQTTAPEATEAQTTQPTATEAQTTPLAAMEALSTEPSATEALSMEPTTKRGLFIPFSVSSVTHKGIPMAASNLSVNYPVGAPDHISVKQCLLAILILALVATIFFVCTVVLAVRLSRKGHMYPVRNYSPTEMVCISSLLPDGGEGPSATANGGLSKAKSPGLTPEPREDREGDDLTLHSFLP
Details: previously determined values (Mehta et al., 1998); read-out: KD for binding to full-length neutrophil PSGL-1

Kd: 322 nM
B1: soluble P-selectin: Soluble P-selectin of the literature study (Mehta et al., 1998) (protein, UniProt P16109 42-771, looked up)
extracellular domain: WTYHYSTKAYSWNISRKYCQNRYTDLVAIQNKNEIDYLNKVLPYYSSYYWIGIRKNNKTWTWVGTKKALTNEAENWADNEPNNKRNNEDCVEIYIKSPSAPGKWNDEHCLKKKHALCYTASCQDMSCSKQGECLETIGNYTCSCYPGFYGPECEYVRECGELELPQHVLMNCSHPLGNFSFNSQCSFHCTDGYQVNGPSKLECLASGIWTNKPPQCLAAQCPPLKIPERGNMTCLHSAKAFQHQSSCSFSCEEGFALVGPEVVQCTASGVWTAPAPVCKAVQCQHLEAPSEGTMDCVHPLTAFAYGSSCKFECQPGYRVRGLDMLRCIDSGHWSAPLPTCEAISCEPLESPVHGSMDCSPSLRAFQYDTNCSFRCAEGFMLRGADIVRCDNLGQWTAPAPVCQALQCQDLPVPNEARVNCSHPFGAFRYQSVCSFTCNEGLLLVGASVLQCLATGNWNSVPPECQAIPCTPLLSPQNGTMTCVQPLGSSSYKSTCQFICDEGYSLSGPERLDCTRSGRWTDSPPMCEAIKCPELFAPEQGSLDCSDTRGEFNVGSTCHFSCDNGFKLEGPNNVECTTSGRWSATPPTCKGIASLPTPGVQCPALTTPGQGTMYCRHHPGTFGFNTTCYFGCNAGFTLIGDSTLSCRPSGQWTAVTPACRAVKCSELHVNKPIAMNCSNLWGNFSYGSICSFHCLEGQLLNGSAQTACQENGHWSTTVPTCQAGPLTIQEA
modifications: extracellular domain
